Data taken from US20210238260.
Positions count from the first letter of the chain named. Names may count otherwise.

B1: FIXa-R318Y/R338E/T343R/R403E/E410N (protein)
chain 1: YNSGKLEEFVQGNLERECMEEKCSFEEAREVFENTERTTEFWKQYVDGDQCESNPCLNGGSCKDDINSYECWCPFGFEGKNCELDVTCNIKNGRCEQFCKNSADNKVVCSCTEGYRLAENQKSCEPAVPFPCGRVSVSQTSKLTR
chain 2: VVGGEDAKPGQFPWQVVLNGKVDAFCGGSIVNEKWIVTAAHCVETGVKITVVAGEHNIEETEHTEQKRNVIRIIPHHNYNAAINKYNHDIALLELDEPLVLNSYVTPICIADKEYTNIFLKFGSGYVSGWGRVFHKGYSALVLQYLRVPLVDRATCLESTKFRIYNNMFCAGFHEGGRDSCQGDSGGPHVTEVEGTSFLTGIISWGEECAMKGKYGIYTKVSEYVNWIKNKTKLT
B2: FIXa-R318Y/R338E/R403E (protein)
chain 1: B1 chain 1
chain 2: B1 chain 2 with R163T, N230E
B3: FIXa D203N/F205T/R318Y/E410N (protein)
chain 1: B1 chain 1
chain 2: B1 chain 2 with D23N, F25T, E158R, R163T, E223R

Columns and labels:
[1] = biological target: plasma purified human antithrombin III (AT-III), in complex with unfractionated heparin (UFH); assay: ratio of K0.5 for AT-III/UFH inhibition, variant over Catalyst Biosciences WT FIXa; calculated from the lower-limit K0.5
[2] = biological target: T1, Antithrombin III (plasma purified human AT-III, Molecular Innovations); assay: same assay; ratio of the lower-limit K0.5 to recombinant wild-type FIXa (Catalyst Biosciences WT)
[3] = biological target: antithrombin III (plasma purified human AT-III), used as the AT-III/unfractionated heparin complex; assay: K0.5 ratio to Catalyst Biosciences WT FIXa, AT-III/UFH inhibition assay (from lower-limit K0.5)
[4] = biological target: T1, Antithrombin III (plasma purified human …); assay: AT-III/UFH inhibition, expanded sensitivity assay (1000 nM-0 nM and 5000-0 nM AT-III); assigned lower limit for less than 10% inhibition
[5] = biological target: plasma purified human antithrombin III (AT-III), in complex with unfractionated heparin; assay: K0.5 of variant over K0.5 of Catalyst Biosciences WT FIXa; AT-III/UFH inhibition assay

Factor X (FX), P00742, sequence (P00742 whole entry, looked up): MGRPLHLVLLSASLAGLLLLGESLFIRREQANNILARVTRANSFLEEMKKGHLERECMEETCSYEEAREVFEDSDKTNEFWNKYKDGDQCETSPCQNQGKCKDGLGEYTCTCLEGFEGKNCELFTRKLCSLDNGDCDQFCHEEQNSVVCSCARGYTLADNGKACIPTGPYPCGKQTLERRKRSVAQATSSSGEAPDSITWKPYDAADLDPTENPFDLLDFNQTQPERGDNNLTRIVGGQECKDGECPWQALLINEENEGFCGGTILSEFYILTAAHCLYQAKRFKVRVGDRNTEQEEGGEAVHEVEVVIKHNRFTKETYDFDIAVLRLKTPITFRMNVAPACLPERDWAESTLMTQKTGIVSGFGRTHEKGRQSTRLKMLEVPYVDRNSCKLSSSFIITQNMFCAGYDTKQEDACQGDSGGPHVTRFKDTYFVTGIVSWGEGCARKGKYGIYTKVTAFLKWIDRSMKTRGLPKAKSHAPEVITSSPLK
Factor X, P00742, sequence (P00742 whole entry, looked up): as above

Protein | KM (Factor X (FX), P00742) [µM] | catalytic activity (kcat/KM) for activation of FX (Factor X (FX), P00742) | kcat of FX activation by FIXa (Xase complex with FVIIIa, PC/PS vesicles, Ca2+) (Factor X (FX), P00742) [s⁻¹] | % of WT kcat/KM (Factor X, P00742) [%] | kcat (Factor X, P00742) [s⁻¹] | kcat/KM (Factor X, P00742) [M⁻¹ s⁻¹] | K0.5-mut/K0.5-wt [1] [fold] | K0.5-mut/K0.5-wt [2] | KM (Factor X, P00742) [µM] | K0.5-mut/K0.5-wt [3] [fold] | K0.5 [4] [µM] | K0.5-mut/K0.5-wt [5]
B1 | 0.0223 | displayed some of the greatest increases in catalytic activity | 9.7 | 1217 | 11.8 | 5.4e+08 | > 517 |  |  |  |  | 
B2 |  |  |  |  |  |  |  | > 517 | 0.0537 | > 517 | > 10 | 
B3 | 0.0457 |  |  |  |  |  |  |  |  |  |  | 66.2
